# Measured values from patent US20250084178A1 (ARCUS BIOSCIENCES, published 2025).
# T1: human CD39 expressed on the cell surface (human, UniProt P49961 1-510)
# T1 sequence: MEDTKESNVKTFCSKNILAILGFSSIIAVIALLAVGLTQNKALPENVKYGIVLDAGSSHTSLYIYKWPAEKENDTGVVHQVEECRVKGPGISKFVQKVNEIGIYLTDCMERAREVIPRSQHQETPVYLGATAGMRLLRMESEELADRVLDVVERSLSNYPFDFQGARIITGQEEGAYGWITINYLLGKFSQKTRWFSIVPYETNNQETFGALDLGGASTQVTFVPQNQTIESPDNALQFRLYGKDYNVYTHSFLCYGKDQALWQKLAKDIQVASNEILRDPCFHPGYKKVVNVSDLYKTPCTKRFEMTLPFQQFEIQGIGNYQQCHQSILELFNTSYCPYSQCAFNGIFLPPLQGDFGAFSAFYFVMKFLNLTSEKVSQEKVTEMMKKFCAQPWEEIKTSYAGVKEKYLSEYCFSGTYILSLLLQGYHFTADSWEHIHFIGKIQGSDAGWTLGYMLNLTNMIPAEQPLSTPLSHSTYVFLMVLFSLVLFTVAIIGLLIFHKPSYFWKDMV
# T2: recombinant human CD39 (soluble) (human, UniProt P49961 38-478, limits assumed)
# T2 sequence (looked up): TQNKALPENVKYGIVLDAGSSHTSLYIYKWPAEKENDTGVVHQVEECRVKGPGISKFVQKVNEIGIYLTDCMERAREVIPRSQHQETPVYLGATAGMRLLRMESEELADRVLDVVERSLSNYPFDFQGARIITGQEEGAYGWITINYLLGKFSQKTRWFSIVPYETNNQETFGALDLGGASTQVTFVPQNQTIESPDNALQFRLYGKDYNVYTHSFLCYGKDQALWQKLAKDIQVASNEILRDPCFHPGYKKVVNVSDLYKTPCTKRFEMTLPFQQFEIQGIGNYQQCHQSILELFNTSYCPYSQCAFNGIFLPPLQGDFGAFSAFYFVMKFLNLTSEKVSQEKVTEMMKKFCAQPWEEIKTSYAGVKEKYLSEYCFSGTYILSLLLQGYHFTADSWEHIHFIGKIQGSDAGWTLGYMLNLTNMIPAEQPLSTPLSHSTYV
# T3: cynomolgus monkey CD39 expressed on HEK-293 cells (cynomolgus monkey, UniProt P49961 5-510 (human entry))
# T3 construct: also called Cynomolgus Monkey CD39-HEK293
# T3 chain: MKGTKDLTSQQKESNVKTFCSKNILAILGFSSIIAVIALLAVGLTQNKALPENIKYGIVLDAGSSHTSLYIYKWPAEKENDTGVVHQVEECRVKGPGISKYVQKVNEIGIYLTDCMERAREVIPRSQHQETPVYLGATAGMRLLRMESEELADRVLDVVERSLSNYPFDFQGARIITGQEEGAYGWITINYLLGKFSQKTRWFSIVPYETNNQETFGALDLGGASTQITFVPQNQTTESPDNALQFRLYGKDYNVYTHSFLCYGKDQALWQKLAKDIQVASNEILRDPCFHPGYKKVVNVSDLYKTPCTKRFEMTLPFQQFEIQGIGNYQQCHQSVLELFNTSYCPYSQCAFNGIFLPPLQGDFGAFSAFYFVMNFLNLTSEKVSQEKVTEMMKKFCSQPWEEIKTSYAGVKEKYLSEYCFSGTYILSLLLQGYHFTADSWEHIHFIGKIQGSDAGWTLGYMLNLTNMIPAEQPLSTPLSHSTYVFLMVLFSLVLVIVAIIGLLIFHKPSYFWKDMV
# T4: murine CD39 expressed on HEK-293 cells (murine, UniProt P55772 1-510)
# T4 construct: also called mouse CD39
# T4 sequence: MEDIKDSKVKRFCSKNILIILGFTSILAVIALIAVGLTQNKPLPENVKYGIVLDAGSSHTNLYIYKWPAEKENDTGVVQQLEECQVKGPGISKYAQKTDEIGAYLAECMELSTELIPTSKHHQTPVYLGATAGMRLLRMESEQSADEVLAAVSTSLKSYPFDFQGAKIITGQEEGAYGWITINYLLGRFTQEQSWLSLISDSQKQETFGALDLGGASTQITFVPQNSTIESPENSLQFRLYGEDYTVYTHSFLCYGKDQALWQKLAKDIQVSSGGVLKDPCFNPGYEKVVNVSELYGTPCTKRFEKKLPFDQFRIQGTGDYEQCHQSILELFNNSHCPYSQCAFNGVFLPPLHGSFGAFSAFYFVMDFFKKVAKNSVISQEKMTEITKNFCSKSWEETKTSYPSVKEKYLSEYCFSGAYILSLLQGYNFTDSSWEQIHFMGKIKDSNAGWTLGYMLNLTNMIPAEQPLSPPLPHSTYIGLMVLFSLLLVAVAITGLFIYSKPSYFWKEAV
# T5: soluble His-tagged human CD39 ECD protein (human, UniProt P49961 38-478)
# T5 construct: also called human CD39 ECD His-tagged antigen; Sino Biological Cat. No. 16020-H08B
# T5 sequence: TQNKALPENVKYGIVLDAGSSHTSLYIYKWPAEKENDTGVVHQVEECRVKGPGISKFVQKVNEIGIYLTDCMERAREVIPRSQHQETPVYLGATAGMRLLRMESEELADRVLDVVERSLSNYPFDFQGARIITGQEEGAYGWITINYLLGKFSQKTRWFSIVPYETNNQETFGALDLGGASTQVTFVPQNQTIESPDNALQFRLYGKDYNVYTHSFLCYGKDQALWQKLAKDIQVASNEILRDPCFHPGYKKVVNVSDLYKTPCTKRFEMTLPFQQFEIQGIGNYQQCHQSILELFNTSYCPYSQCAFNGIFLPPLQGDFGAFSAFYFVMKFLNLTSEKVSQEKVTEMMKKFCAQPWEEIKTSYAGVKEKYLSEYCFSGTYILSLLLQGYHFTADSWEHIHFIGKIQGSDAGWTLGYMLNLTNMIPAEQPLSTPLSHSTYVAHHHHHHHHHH
# Tests used:
# [1] = target: T1, human CD39 expressed on the cell surface; assay: cell-based or functional assay
# [2] = target: T2, recombinant human CD39 (soluble); assay: cell-based or functional assay
# [3] = target: T1, human CD39 expressed on the cell surface; assay: cell-based or functional assay; remark: listed apart in the source
# [4] = target: T1, human CD39 expressed on the cell surface; assay: cell-based or functional assay; remark: listed apart in the source
# [5] = target: T1, human CD39 expressed on the cell surface; assay: FACS on CHO-K1 cells overexpressing human CD39
# [6] = target: T3, cynomolgus monkey CD39 expressed on …; assay: FACS on HEK293 cells overexpressing cynomolgus CD39
# [7] = target: T1, human CD39 expressed on the cell surface; assay: flow cytometry on purified human CD14+ monocytes, 0 uM ATP
# [8] = target: T1, human CD39 expressed on the cell surface; assay: flow cytometry on purified human CD14+ monocytes, 400 uM ATP
# [9] = target: T4, murine CD39 expressed on HEK-293 cells; assay: FACS on HEK-293 cells overexpressing murine CD39 (method of Example 1)
# [10] = target: T5, soluble His-tagged human CD39 ECD …; assay: SPR (Biacore 8K), antibody captured via anti-human Fc, CD39 ECD analyte
# [11] = target: T5, soluble His-tagged human CD39 ECD …; assay: SPR (Biacore 8K), antibody captured via anti-human Fc, CD39 ECD analyte, 25 C
# [12] = target: T1, human CD39 expressed on the cell surface; assay: cell-based or functional assay; remark: listed apart in the source
# [13] = target: T1, human CD39 expressed on the cell surface; assay: cell-based or functional assay; remark: listed apart in the source
# [14] = target: T1, human CD39 expressed on the cell surface; assay: flow cytometry on human PBMCs gated on CD19+ B cells, 0 uM ATP (N = 8)
# [15] = target: T1, human CD39 expressed on the cell surface; assay: flow cytometry on human PBMCs gated on CD14+ monocytes, 0 uM ATP (N = 8)
# [16] = target: T1, human CD39 expressed on the cell surface; assay: flow cytometry on human PBMCs gated on CD19+ B cells, 400 uM ATP (N = 6)
# [17] = target: T1, human CD39 expressed on the cell surface; assay: flow cytometry on human PBMCs gated on CD14+ monocytes, 400 uM ATP (N = 6)
# [18] = target: T1, human CD39 expressed on the cell surface; assay: flow cytometry on human PBMCs gated on CD19+ B cells, one donor, 0 µM ATP
# [19] = target: T1, human CD39 expressed on the cell surface; assay: flow cytometry on human PBMCs gated on CD19+ B cells, one donor, 400 µM ATP
# [20] = target: T1, human CD39 expressed on the cell surface; assay: flow cytometry on whole blood of C57BL/6 hCD39KI MC38 mice treated in vivo with isotype control, with saline or oxaliplatin; signal over the IgG1.FcS-AF647 isotype control (bottom row of panels)
# [21] = target: T5, soluble His-tagged human CD39 ECD …; assay: SPR (Biacore 8K), antibody captured via anti-human Fc, CD39 ECD analyte; remark: listed apart in the source
Binder,Human THP-1 CD39 inhibition IC50 [1] [nM],"IC50, inhibition of recombinant CD39 enzymatic activity, 20 uM ATP [2] [nM]","Max Inhibition (%), recombinant CD39, 20 uM ATP [2] [%]","IC50, CD39 enzymatic inhibition on SK-MEL-5 cells, 20 uM ATP [3] [nM]","Max Inhibition (%), SK-MEL-5 cells [3] [%]","IC50, CD39 enzymatic inhibition on THP-1 cells, 20 uM ATP [4] [nM]","Max Inhibition (%), THP-1 cells [4] [%]",EC50 [5] [nM],EC50 [6] [nM],EC50 [7] [nM],EC50 [8] [nM],binding result [9],Kd [11] [nM],koff [11] [s⁻¹],kon [11] [M⁻¹ s⁻¹],also measured
"ch39_IGG4.P (antibody, human IgG4 S228P, kappa, rat/human chimera of antibody 39, human IgG4 (S228P), kappa) heavy: not shown light: DTVLTQSPALAVSPGERVSISCRASEGVKSYMHWYQQKPGQQPKLLIYKASNLASGVPARFSGSGSGTDFTLTIDPVEADDTATYFCQQSWNDPTFGAGTKLELKRTVAAPSVFIFPPSDEQLKSGTASVVCLLNNFYPREAKVQWKVDNALQSGNSQESVTEQDSKDSTYSLSSTLTLSKADYEKHKVYACEVTHQGLSSPVTKSFNRGEC",0.042,2.3,100,0.56,63,0.11,67,0.79,0.32,0.69,1.3,no binding,0.214,7.45e-05,348000,Kd [10]: 0.336 nM; koff [10]: 9.4e-05 s⁻¹; kon [10]: 280000 M⁻¹ s⁻¹
"huBMK2_IGG1.AEASS (antibody, human IgG1, kappa, V domains shown, also called previously described anti-CD39 antibody (comparator)) VH: QVQLVQSGAEVKKPGASVKVSCKASGYTFTDYNMHWVRQAPGQRLEWIGYIVPLNGGSTFNQKFKGRATITVDTSARTAYMELSSLRSEDTAVYYCARGGTRFAYWGQGTLVTVSS VL: DIVMTQSPDSLAVSLGERATINCRASESVDNFGVSFMYWFQQKPGQPPKLLIYGASNQGSGVPDRFSGSGSGTDFTLTISSLQAEDVAVYYCQQTKEVPYTFGGGTKVEIKR",–,–,–,–,–,–,–,–,–,–,–,–,–,–,–,"IC50, CD39 enzymatic inhibition on human monocytes, 20 uM ATP [12]: 2.7 nM; Max Inhibition (%), human monocytes, 20 uM ATP [12]: 74%; IC50, CD39 enzymatic inhibition on human monocytes, 400 uM ATP [13]: 1.4 nM; Max Inhibition (%), human monocytes, 400 uM ATP [13]: 62%; EC50 [14]: 0.9 nM; EC50 [15]: 1 nM; EC50 [16]: 0.8 nM; EC50 [17]: 1 nM; EC50 (read off the curve) [18]: ~0.7 nM; EC50 (read off the curve) [19]: ~0.8 nM"
"hu39.5_IGG1.AA-AF647 (antibody, human IgG1, kappa, L234A L235A, antibody conjugated to AF647 (Lightning Link kit; residues not stated)) heavy: not shown light: DTVLTQSPASLAVSPGQRATITCRASEGVKSYMHWYQQKPGQPPKLLIYKASNLASGVPARFSGSGSGTDFTLTINPVEADDTANYYCQQSWNDPTFGQGTKLEIKRTVAAPSVFIFPPSDEQLKSGTASVVCLLNNFYPREAKVQWKVDNALQSGNSQESVTEQDSKDSTYSLSSTLTLSKADYEKHKVYACEVTHQGLSSPVTKSFNRGEC",–,–,–,–,–,–,–,–,–,–,–,–,–,–,–,binding result [20]: binds
"ch31_IGG4.P (antibody, human IgG4 S228P, kappa, V domains shown, rat/human chimera of antibody 31, human IgG4 (S228P), kappa) VH: EVHLQQSGAALVRPGTSVKLPCKVSGDSITAYFMHFVRQRPGQGLEWMGRIDPDHERTKYAEKFKNRASLTSETSSNTVFLQLTSLTSEDTATYFCTTERVPGFETDYWGQGVMVTVSS VL: DIVLTQSPTLAVSLGQRATISCRTNQTVDHYGTTYMNWYQQKPGQQPKLLIYLASSLASGIPARFSGRGSGTDFTLTIDPVEADDTATYYCQQSRNLWTFGGGTKLELKR",0.09,1.3,100,2.4,63,0.14,86,4.44,2.55,27,28,no binding,0.113,0.000125,1.1e+06,Kd [21]: 0.129 nM; koff [21]: 0.00015 s⁻¹; kon [21]: 1.16e+06 M⁻¹ s⁻¹
